This experiment addresses HLA-A*24 (human). The experiment is described as follows: UV peptide-exchange ELISA, yield grade.
For the molecule VHIPEVYLI [… (SEQ ID NO: 205)], the peptide exchange yield is 50 to 75%. As to YYLEVGKTLI [… (SEQ ID NO: 211)], the peptide exchange yield is above 75%. Turning to IYQLDTASI [… (SEQ ID NO: 182)], the peptide exchange yield was 50 to 75%.

LYLDIINLF [… (SEQ ID NO: 181)] had a peptide exchange yield above 75%. In turn, MYDSYWRQF [… (SEQ ID NO: 179)] displayed a peptide exchange yield above 75%. IFPQFLYQF [… (SEQ ID NO: 186)] returned a peptide exchange yield above 75%. To RYFKGLVF [RYFKGLVF (SEQ ID NO: 188)] belongs 50 to 75%; to TYTQDFNKF [… (SEQ ID NO: 208)], 50 to 75%. In the case of EYQENFLSF [… (SEQ ID NO: 206)], the peptide exchange yield was 50 to 75%. The molecule TYTTVPRVAF [… (SEQ ID NO: 172)] showed a peptide exchange yield above 75%. For the molecule LYLKLWNLI [… (SEQ ID NO: 214)], the peptide exchange yield was 50 to 75%. On to EFGSLHLEFL [… (SEQ ID NO: 194)], for which the peptide exchange yield is below 20%. To LYLDKATLI [… (SEQ ID NO: 198)] belongs 50 to 75%; to GFFIFNERF [… (SEQ ID NO: 190)], 50 to 75%. To SYALLTYMI [… (SEQ ID NO: 192)] belongs above 75%; to IFIEVFSHF [… (SEQ ID NO: 178)], 50 to 75%. Take VYPWLGALL [… (SEQ ID NO: 177)]: the peptide exchange yield was above 75%. IYKVGAPTI [… (SEQ ID NO: 185)] had a peptide exchange yield of 50 to 75%. IYTMIYRNL [… (SEQ ID NO: 210)] yielded a peptide exchange yield above 75%. Regarding FYSRLLQKF [… (SEQ ID NO: 203)], the peptide exchange yield fell in the range of 50 to 75%. In turn, VFKASKITF [… (SEQ ID NO: 191)] returned a peptide exchange yield of 50 to 75%. To IYDDSFIRPVTF [… (SEQ ID NO: 180)] belongs 50 to 75%.

VFTSTARAF [… (SEQ ID NO: 183)] gave a peptide exchange yield of 50 to 75%. To WYVNGVNYF [… (SEQ ID NO: 189)] belongs 20 to 49%; to VFQNFPLLF [… (SEQ ID NO: 184)], above 75%. Molecule TYLRDQHFL [… (SEQ ID NO: 187)] had a peptide exchange yield above 75%. The molecule RFHPTPLLL [… (SEQ ID NO: 193)] showed a peptide exchange yield above 75%.
